Laboratory results published in IntAct's records for PubMed 29039417.

B1: Protein PTHB1 (Homo sapiens), Q3SYG4 (parent)
chain: MSLFKARDWWSTILGDKEEFDQGCLCLANVDNSGNGQDKIIVGSFMGYLRIFSPHPAKTGDGAQAEDLLLEVDLRDPVLQVEVGKFVSGTEMLHLAVLHSRKLCVYSVSGTLGNVEHGNQCQMKLMYEHNLQRTACNMTYGSFGGVKGRDLICIQSMDGMLMVFEQESYAFGRFLPGFLLPGPLAYSSRTDSFLTVSSCQQVESYKYQVLAFATDADKRQETEQQKLGSGKRLVVDWTLNIGEQALDICIVSFNQSASSVFVLGERNFFCLKDNGQIRFMKKLDWSPSCFLPYCSVSEGTINTLIGNHNNMLHIYQDVTLKWATQLPHIPVAVRVGCLHDLKGVIVTLSDDGHLQCSYLGTDPSLFQAPNVQSRELNYDELDVEMKELQKIIKDVNKSQGVWPMTEREDDLNVSVVVSPNFDSVSQATDVEVGTDLVPSVTVKVTLQNRVILQKAKLSVYVQPPLELTCDQFTFEFMTPDLTRTVSFSVYLKRSYTPSELEGNAVVSYSRPTDRNPDGIPRVIQCKFRLPLKLICLPGQPSKTASHKITIDTNKSPVSLLSLFPGFASQSDDDQVNVMGFHFLGGARITVLASKTSQRYRIQSEQFEDLWLITNELILRLQEYFEKQGVKDFACSFSGSIPLQEYFELIDHHFELRINGEKLEELLSERAVQFRAIQRRLLARFKDKTPAPLQHLDTLLDGTYKQVIALADAVEENQGNLFQSFTRLKSATHLVILLIALWQKLSADQVAILEAAFLPLQEDTQELGWEETVDAAISHLLKTCLSKSSKEQALNLNSQLNIPKDTSQLKKHITLLCDRLSKGGRLCLSTDAAAPQTMVMPGGCTTIPESDLEERSVEQDSTELFTNHRHLTAETPRPEVSPLQGVSE
partner: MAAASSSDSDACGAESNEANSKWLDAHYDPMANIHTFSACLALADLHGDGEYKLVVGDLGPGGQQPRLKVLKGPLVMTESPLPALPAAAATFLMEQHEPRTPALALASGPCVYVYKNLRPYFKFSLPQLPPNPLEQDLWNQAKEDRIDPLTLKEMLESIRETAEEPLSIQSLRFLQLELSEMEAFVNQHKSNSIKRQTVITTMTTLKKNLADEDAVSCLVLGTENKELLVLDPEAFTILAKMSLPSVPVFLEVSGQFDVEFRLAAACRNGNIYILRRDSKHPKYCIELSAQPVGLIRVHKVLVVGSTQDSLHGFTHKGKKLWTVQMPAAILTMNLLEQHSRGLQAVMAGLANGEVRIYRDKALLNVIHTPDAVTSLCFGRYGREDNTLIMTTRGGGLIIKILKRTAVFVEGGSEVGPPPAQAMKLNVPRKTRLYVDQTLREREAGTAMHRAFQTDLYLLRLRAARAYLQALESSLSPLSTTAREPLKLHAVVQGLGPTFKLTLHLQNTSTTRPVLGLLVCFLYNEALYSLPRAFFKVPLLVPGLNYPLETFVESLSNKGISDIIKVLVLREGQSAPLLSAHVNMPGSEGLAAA

Variants of: B1
Details: with bbs1_human BBS1, Q8NFJ9

Row | effect of a mutation on the interaction | Variant
1 | with no effect | H652K
2 | with no effect | L436K
3 | with no effect | C525K
4 | with no effect | T496K
5 | with no effect | I707A
6 | with no effect | Q574K
7 | with no effect | P564A
8 | with no effect | P564E
9 | disrupting interaction strength | P802T
10 | with no effect | I751E
11 | with no effect | V879A
12 | with no effect | T871K
13 | with no effect | D409K
14 | with no effect | D409A
15 | with no effect | S558A
16 | with no effect | S423A
17 | with no effect | I640E
18 | with no effect | F606E
19 | disrupting interaction strength | A775T
20 | with no effect | R669A
21 | with no effect | L562A
22 | with no effect | G638K
23 | with no effect | K781A
24 | with no effect | L799E
25 | with no effect | L720E
26 | with no effect | A592E

Row | effect of a mutation on the interaction | Variant
27 | with no effect | N796A
28 | with no effect | E431K
29 | with no effect | Q677E
30 | with no effect | V505E
31 | with no effect | V505A
32 | with no effect | P556A
33 | with no effect | I550A
34 | with no effect | T434K
35 | with no effect | L655A
36 | with no effect | T771E
37 | with no effect | T771K
38 | with no effect | S723E
39 | with no effect | N719E
40 | with no effect | K743A
41 | with no effect | R587K
42 | with no effect | V430A
43 | with no effect | I812E
44 | with no effect | Q807A
45 | with no effect | T589A
46 | with no effect | G585E
47 | with no effect | P537E
48 | with no effect | L642E
49 | with no effect | L560E
50 | with no effect | K821E
51 | with no effect | T428E
52 | with no effect | S439A

Row | effect of a mutation on the interaction | Variant
53 | with no effect | D517K
54 | with no effect | V461E
55 | with no effect | F724K
56 | with no effect | V506K
57 | disrupting interaction strength | V506I
58 | with no effect | K532E
59 | disrupting interaction strength | R674P
60 | with no effect | Q643E
61 | with no effect | S488K
62 | with no effect | C634K
63 | with no effect | Y599K
64 | with no effect | L736A
65 | with no effect | P497A
66 | with no effect | G718E
67 | with no effect | L759K
68 | with no effect | R449K
69 | with no effect | Q760K
70 | with no effect | R407E
71 | with no effect | Q858E
72 | with no effect | P530E
73 | with no effect | H546E
74 | disrupting interaction strength | L620F
75 | disrupting interaction strength | R619C
76 | with no effect | T445A
77 | with no effect | L757A
78 | with no effect | N448E

Row | effect of a mutation on the interaction | Variant
79 | with no effect | L531E
80 | with no effect | F653A
81 | with no effect | S855E
82 | with no effect | S855A
83 | with no effect | S806K
84 | with no effect | V459K
85 | with no effect | V772E
86 | with no effect | V772K
87 | with no effect | T782K
88 | with no effect | S458K
89 | with no effect | K685A
90 | with no effect | R679K
91 | with no effect | L618A
92 | with no effect | Y490E
93 | disrupting interaction strength | K809E
94 | with no effect | E499A
95 | with no effect | S828E
96 | with no effect | N412E
97 | with no effect | P438E
98 | disrupting interaction strength | Q722T
99 | disrupting interaction strength | V749E
100 | with no effect | C783A
101 | disrupting interaction strength | W741S
102 | disrupting interaction strength | D696V
103 | with no effect | D696A
104 | with no effect | N420E

Row | effect of a mutation on the interaction | Variant
105 | with no effect | Q539E
106 | with no effect | E770A
107 | disrupting interaction strength | A792E
108 | with no effect | T613E
109 | with no effect | T543A
110 | with no effect | E853K
111 | with no effect | L780K
112 | with no effect | F421A
113 | with no effect | T874A
114 | with no effect | A774E
115 | with no effect | A774K
116 | with no effect | H869A
117 | with no effect | M578A
118 | with no effect | M578E
119 | with no effect | E615A
120 | disrupting interaction strength | V838K
121 | with no effect | F580E
122 | with no effect | R683E
123 | with no effect | R683K
124 | with no effect | L467K
125 | with no effect | F646E
126 | with no effect | D551A
127 | with no effect | A567E
128 | with no effect | S545E
129 | with no effect | F476A
130 | with no effect | S498K

Row | effect of a mutation on the interaction | Variant
131 | with no effect | F582A
132 | with no effect | F582E
133 | with no effect | E761A
134 | with no effect | K704E
135 | with no effect | Q627K
136 | with no effect | H651E
137 | disrupting interaction strength | H651T
138 | disrupting interaction strength | A833S
139 | with no effect | K687E
140 | disrupting interaction strength | E753K
141 | with no effect | E664K
142 | with no effect | R514K
143 | with no effect | L666A
144 | with no effect | V413E
145 | with no effect | D817A
146 | with no effect | K789E
147 | with no effect | T688A
148 | with no effect | S637K
149 | with no effect | G433K
150 | with no effect | S880A
151 | with no effect | S570E
152 | with no effect | L795K
153 | disrupting interaction strength | D804F
154 | with no effect | L411K
155 | with no effect | L411A
156 | with no effect | D422E

Row | effect of a mutation on the interaction | Variant
157 | with no effect | P516A
158 | with no effect | E622A
159 | disrupting interaction strength | L733A
160 | with no effect | I601A
161 | with no effect | I601K
162 | disrupting interaction strength | R600G
163 | with no effect | L446A
164 | with no effect | D608E
165 | with no effect | I534A
166 | with no effect | E887K
167 | with no effect | T829K
168 | with no effect | E604K
169 | with no effect | D773A
170 | disrupting interaction strength | H778E
171 | with no effect | L452E
172 | with no effect | V440E
173 | with no effect | Q705A
174 | with no effect | Q705K
175 | with no effect | S507K
176 | with no effect | S785E
177 | with no effect | L727E
178 | with no effect | L727A
